The record followed here is the nanobody polyreactivity screen of Harvey et al. (2022).

This series in a line: yeast display, Sf9 membrane polyspecificity reagent, FACS + sequencing; frameworks hold sequencing errors. The gist of the method: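 Nanobodies from a synthetic yeast display library (Saccharomyces cerevisiae BJ5465), induced 36–48 hours with galactose, were stained 1 hour at 4 °C with 10% biotinylated, detergent-solubilized Sf9 membrane reagent, enriched on streptavidin microbeads, then FACS-sorted. Anti-HA (expression) and streptavidin (reagent binding) fluorescence set low and high (top ~1%) gates. Polyreactivity labels come from the gate of origin. Genes were colony-PCR amplified, MiSeq 2 × 250 sequenced and filtered by CDR length.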
Consider “QVQLVESGGGLVQAGGSLRLSCAASGSIFYRYAMGWYRQAPGKERELVADISSGGGTSYADSVKGRFTISRDNAKNTVYLQMNSLKPEDTAVYYCAAELYYWTYVRFDYWGQGTQVTVSS”, for which the “polyreactivity (PSR sort gate)” value is “low polyreactivity”.
The same measure for “QVQLVESGGGLVQAGGSLRLSCAASGSIFYSNAKGWYRQAPGKERELVATITWSGGRTYYADSVKGRFTISRDNAKNTVYLQMNILKPEDTAVYYCAAVSIYWGQGTQVTVSS”: “low polyreactivity”; for “QVQLVESGGGLVQAGGSLRLSCAASGSIFYSNAMGWYRQAAGKERELVAAISVSGVSTYYADSVKGRFTISRDTAKNTVYLQMNSLKPEDTAVYYCAADTGYRYDDYYWWGGEYDYWGQGTQVTVSS”: “low polyreactivity”.
Turning to “QVQLVESGGGLVQAGGSLRLSCAASGSIFYSNAMGWYRQAPGKERELVAAINWRGGSTYYADSVKGRFTISRDYAKNTVYLQMNSLKPEDTAVYYCNADSYDEIKYGYWGQGTQVTVSS”, the “polyreactivity (PSR sort gate)” value is “low polyreactivity”.
In the case of “QVQLVESGGGLVQAGGSLRLSCAASGSIFYSNAMGWYRQAPGKERELVAAISVSGVTTYYADSVKGRFTISRDNAKNTVYLQMNSLKPEDTAVYYCAADTGYRYDDYYWWGGEYDYWGQGTQVTVSS” it was “low polyreactivity”.
Regarding “QVQLVESGGGLVQAGGSLRLSCAASGSIFYSNAMGWYRQAPGKERELVAAITRRGGSTYYADSVKGRFTISRDNAKNTVYLQMNSLKPEDTAVYYCAARYYRRFAHYGEYGYWGQGTQVTVSS”, the “polyreactivity (PSR sort gate)” value is “high polyreactivity”.
Consider “QVQLVESGGGLVQAGGSLRLSCAASGSIFYSNAMGWYRQAPGKERELVAAITRRGGSTYYADSVKGRFTISRDNAKNTVYLQMNSLKPEDTAVYYCNRDPDIYIGYDYWGQGTQVTVSS”, for which the “polyreactivity (PSR sort gate)” value is reported as “high polyreactivity”.
In the case of “QVQLVESGGGLVQAGGSLRLSCAASGSIFYSNAMGWYRQAPGKERELVAAITWSGGSTYYADSVKGRFTISRDNAKNTVYLQMNSLKPEDTAVYYCNARRNVRQTFGYEYWGQGTQVTVSS” it was “high polyreactivity”; in that of “QVQLVESGGGLVQAGGSLRLSCAASGSIFYSNAMGWYRQAPGKERELVARITWSGGSTYYADSVKGRFTISRDNAKNTVYLQMNSLKPEDTAVYYCNKVIFRYFTTRPTRTYEYWGQGTQVTVSS”, “low polyreactivity”.
As to “QVQLVESGGGLVQAGGSLRLSCAASGSIFYSNAMGWYRQAPGKERELVATIRSGGTTYYADSVKGRFTISRDNAKNTVYLQMNSLKPEDTAVYYCAKRYGVKYWGQGTQVTVSS”, the “polyreactivity (PSR sort gate)” value was “high polyreactivity”.
The same measure for “QVQLVESGGGLVQAGGSLRLSCAASGSIFYSNVMGWYRQAPGKERELVAAISKNGGSTYYADSVKGRFTISRDNAKNTVYLQMNSLKPEDTAVYYCAKYGYVGTTYGYWGQGTQVTVSS”: “high polyreactivity”.
For the sequence “QVQLVESGGGLVQAGGSLRLSCAASGSIFYSYAKGWYRQAPGKERELVAAISWDASTYFADSVKGRFTISRDNAKYSVYLQMNSLKPEDTAVYYCNADIPYYFVYDAYDYWGQGTQVTVSS”, the “polyreactivity (PSR sort gate)” value is listed as “low polyreactivity”.
The same measure for “QVQLVESGGGLVQAGGSLRLSCAASGSIFYSYAMGWSRQAPGKERELFAAISYSTTSTYYADSVKGRFTISCDNAKNTVYLQMKSLKPEDTAVYYCAVDYIIWYDGYLLYYWGQGTQVTVSS”: “low polyreactivity”.
The same measure for “QVQLVESGGGLVQAGGSLRLSCAASGSIFYSYAMGWYRQAPGKERELVAAISYSSGSTYYADSVKGRFTISRDNAKNTVYLQMNSLKPEDTAVYYCAAEGNGWQVDVTEVGEYDSWGQGTQVTVSS”: “high polyreactivity”; for “QVQLVESGGGLVQAGGSLRLSCAASGSIFYSYAMGWYRQAPGKERELVARINYRGGSTYYADSVKGRFTISRDNAMNTVYLQMNSLKPEDTAVYYCAKRSYWSSNPRDYWGQGTQVTVSS”: “high polyreactivity”.
The same measure for “QVQLVESGGGLVQAGGSLRLSCAASGSIFYTNVMGWYRQAPGKERELVAAISSSGDRTYYADSVKGRFTISRDNAKNTVYLQMNSLKPEDTAVYYCAAQSYRSRYYYWGQGTQVTVSS”: “high polyreactivity”; for “QVQLVESGGGLVQAGGSLRLSCAASGSIFYTYAMGWYRQAPGKERELVAAISRSGGSTYYADSVKGRFTISRDNAKNTVYLQMNSLKPEDTAVYYCAAVSYRGRGYWGQGTQVTVSS”: “high polyreactivity”; for “QVQLVESGGGLVQAGGSLRLSCAASGSIFYTYTMGWYRQAPGKERELVAAISTRGGSTYYADSVKGRFTISRDNAKNTFYLQMNSLKPEDTAVYYCAAGLQRYRMYYWGQGTQVTVSS”: “high polyreactivity”.
As to “QVQLVESGGGLVQAGGSLRLSCAASGSIFYVNAMGWYRQAPGTERELVAAISWRSGRTYYADSVKGRFTISRDHAKNTVYLQMHSLKPEDTAVYYCAARVRRGSTQAQYYYWGQGTQVTVSS”, the “polyreactivity (PSR sort gate)” value is “high polyreactivity”.
On to “QVQLVESGGGLVQAGGSLRLSCAASGSIFYVNVMGWYRQAPGKERELVATISSGDTNYADSVKGRFTISRDNAKNTVYLQMNSLKPEDTAVYYCARRRTIPYTLVDYDSWGQGTQVTVSS”, for which the “polyreactivity (PSR sort gate)” value is reported as “low polyreactivity”.
The same measure for “QVQLVESGGGLVQAGGSLRLSCAASGSIFYVYAMGWYRQAPGKERELVAAIRRSGTSTYYADSVKGRFTISRDNAKNTVYLQMNSLKPEDSAVYYCAARYEVRHTLYNYWGQGTQVTVSS”: “high polyreactivity”.
The same measure for “QVQLVESGGGLVQAGGSLRLSCAASGSIFYWYAMGWYRQAPGKERELVAGITGRGGSTYYADSVKGRFTISRDNAKNTVYLQMNSLKPEDSAVYYADFVKYGKYYQRYDYWAQGTQVTVSS”: “high polyreactivity”.
The same measure for “QVQLVESGGGLVQAGGSLRLSCAASGSIFYWYAMGWYRQAPGKERELVATNRYRGGNTYYADSVKGRFTISRDNAMNTVYLQMNSLKAEDTAVYYADFVKFCKYYQRYDYWGQGTQVTVSS”: “high polyreactivity”; for “QVQLVESGGGLVQAGGSLRLSCAASGSIFYWYAMGWYSQAPGKERELVAAIDISDDTYYADSVKGRFTISRDNAKNTVYLQMNSLKPEDTAGYYCAARTTRWFYEYDWGQGSQVTVSS”: “high polyreactivity”; for “QVQLVESGGGLVQAGGSLRLSCAASGSIFYYKYSMGWYRQAPGKERELVAAITSTGGTTYYADSVKGRFTISRDNAKNTVYLQMNSLKPEDTAVYYCAALAPYIGGVDYDYWGQGTQVTVSS”: “low polyreactivity”.
In the case of “QVQLVESGGGLVQAGGSLRLSCAASGSIFYYNAMGWYRPAPGKERELVAAITWSGGTYYADSVKGRFTISRDNAKNTVYLQMNSLKPEDTAVYYCNGARLYKWSFTPKFEMDHWGQGTQVTVSS”, the “polyreactivity (PSR sort gate)” value was “low polyreactivity”.
The same measure for “QVQLVESGGGLVQAGGSLRLSCAASGSIFYYNAMGWYRQAPGKERELDANISWNGASTYYADSVKGRFTISRDNAKNSVYLQMLSLKPEDTAVYYCATAGKGDPPWLPSEVTDYYYWGQGTQVTVSL”: “low polyreactivity”.
The same measure for “QVQLVESGGGLVQAGGSLRLSCAASGSIFYYNAMGWYRQAPGKERELVAAITSSGGSTYADSVKGRFSISRDNAKNTVYLQMKSLKPEDTAVYYCNADGGYSYESTDHYGYEYWGQGTQVTVSS”: “low polyreactivity”; for “QVQLVESGGGLVQAGGSLRLSCAASGSIFYYNAMGWYRQAPGKERELVATITSGGSTYYADSVKGRFTISRDNAKNTVYLQMNSLKPEDTAVYYCAPRSQSIRYTYIRSYYWGQGTQVTVSS”: “low polyreactivity”; for “QVQLVESGGGLVQAGGSLRLSCAASGSIFYYNAMGWYSQAPGKERELVAAITGSGGSTYYADSVKGRFTISRDNAKNTVYLQMNSLKPEDTAVYYCAADYSLYGWWFRNDYWGQGTQVTVSS”: “low polyreactivity”.
For “QVQLVESGGGLVQAGGSLRLSCAASGSIFYYNDRGWSRQAPGKDRELVATIRSGGNTNYADSVKGRFTISRDIAKNTVYLQMNSLKPEDSAVYYCTARGAYHGYRYDSWGQGTQVTVSS”, the “polyreactivity (PSR sort gate)” value is given as “low polyreactivity”.
In the case of “QVQLVESGGGLVQAGGSLRLSCAASGSIFYYNTMGWYRQAPGKERELVAAIRSSSGRTYYADSVKGRFTISRDNAKNTVYLQMNSLKPEDTAVYYCATVHSYTIQRYDYWGQGTQVTVSS” it was “high polyreactivity”.
The same measure for “QVQLVESGGGLVQAGGSLRLSCAASGSIFYYYAMGWSRQAPGKEREFVAAIRESGGSTYYADSVKGSFTISRDNAKNTVYLQMNSLKAEDTAVYYCAVRRPRRNYNYPYDYWGQGTQVTVSS”: “low polyreactivity”.
The same measure for “QVQLVESGGGLVQAGGSLRLSCAASGSIFYYYAMGWYRQAPGKERELVAAIDASGGSTYYADSVKGRFTISRDNAKNTVYLQMNSLKPEDTAVYYCATRSPRLSRHRRYYSWGQGTQVTVSS”: “high polyreactivity”.
With “QVQLVESGGGLVQAGGSLRLSCAASGSIFYYYAMGWYRQAPGKERELVAAISSGGVRTYYADSVKGRFTISRDNAKNTVYLQMKSLKPEDTAVYYCAKDVHSGVTLIHERYYWGQGTQVTVSS”, the “polyreactivity (PSR sort gate)” value is “low polyreactivity”.
Regarding “QVQLVESGGGLVQAGGSLRLSCAASGSIFYYYAMGWYRQAPGKERELVAAISYGGGSTYYADSVKGRFTISRDNAKNTVYLQMNSLKPEDTAVYYCAVQEVVGWYLYDYWGQGTQVTVSS”, the “polyreactivity (PSR sort gate)” value is recorded as “high polyreactivity”.
The same measure for “QVQLVESGGGLVQAGGSLRLSCAASGSIFYYYAMGWYRQAPGKERELVASISTDGSTYADSVKGRFTISRDNAKNTVYLQMNSLKPEDTAVYYCNADTRGEYTYVSWYDYWGQGTQVTVSS”: “low polyreactivity”; for “QVQLVESGGGLVQAGGSLRLSCAASGSIFYYYTMGWYRAAPGKERELVAGISRSGDRTYYADSVKGRFTISRDNAKNTVYLQMNSLKPEVTAVYYCATRWSSARMDYWGQGTQVTVSS”: “high polyreactivity”; for “QVQLVESGGGLVQAGGSLRLSCAASGSIFYYYTMGWYRPAPGKERELVASITGGGSTYYADSVKGRFTISRDNAKNTVYLQMNSLKPDDTAVYYCAAYRYGVTNAYGYWGQGTQVTVSS”: “high polyreactivity”.
The same measure for “QVQLVESGGGLVQAGGSLRLSCAASGSIIAINAMGWYRQAPGKERDLVAAISWNTGTTYYADSVKGRFTISRDNAKNTVYLQMNSLKPEDTAVYYCAADLWRWESLYKIWLPQYDYWGQGTQVTVSS”: “high polyreactivity”.
